From US20230088052A1
pKd: −log10 of the molar value. Read-outs that look alike come from different tables or passages of the source.

Key:
[1] = molecular target: his-tagged human IL-4R recombinant protein (h-IL-4R-his) (human) (UniProt P24394); test: Biacore SPR: antibody captured, IL-4R antigen in flow, 1:1 model
[2] = molecular target: his-tagged human IL-4R recombinant protein (h-IL-4R-his) (human) (UniProt P24394); test: binding ELISA, human IL-4R-his coated
[3] = molecular target: his-tagged human IL-4R recombinant protein (h-IL-4R-his) (human) (UniProt P24394); test: binding ELISA, human IL-4R-his coated; remark: listed apart in the source
[4] = molecular target: humanized Fc-tagged human IL-4R recombinant protein (h-IL-4R-Fc) (human) (UniProt P24394); test: blocking ELISA of human IL-4/IL-4R
[5] = molecular target: his-tagged human IL-4R recombinant protein (h-IL-4R-his) (human) (UniProt P24394); test: binding ELISA, human IL-4R-his coated; remark: listed apart in the source
[6] = molecular target: humanized Fc-tagged human IL-4R recombinant protein (h-IL-4R-Fc) (human) (UniProt P24394); test: blocking ELISA: human IL-4R-Fc coated, antibody blocks the binding of IL-4
[7] = molecular target: humanized Fc-tagged human IL-4R recombinant protein (h-IL-4R-Fc) (human) (UniProt P24394); test: as above; remark: listed apart in the source

Dupilumab (antibody), sequence (VH): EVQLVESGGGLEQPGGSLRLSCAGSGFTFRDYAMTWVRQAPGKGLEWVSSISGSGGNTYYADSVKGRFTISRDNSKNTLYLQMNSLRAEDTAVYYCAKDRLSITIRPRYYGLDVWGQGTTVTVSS
Dupilumab (antibody), sequence (VL): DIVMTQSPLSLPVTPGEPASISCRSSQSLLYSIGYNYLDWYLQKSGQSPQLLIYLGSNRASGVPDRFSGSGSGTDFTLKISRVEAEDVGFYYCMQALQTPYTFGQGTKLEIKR

Substance Dupilumab (antibody) has a pKd [1] of 9.90, an EC50 [2] of 0.0276 µg/mL and an EC50 [3] of 0.0558 µg/mL. The IC50 [4] was 0.156 µg/mL, the EC50 [5] was 0.0426 µg/mL and the IC50 [6] was 0.209 µg/mL. For the same substance, the IC50 [7] was 0.0521 µg/mL.
